Positions count from the first letter of the chain named.
T1: recombinant human TL1A (human, UniProt O95150 71-251)
T1 construct: The ELISA method says only 'recombinant TL1A' coated on plates; homotrimeric cytokine; also called TNFSF15; recombinant TL1A
T1 chain: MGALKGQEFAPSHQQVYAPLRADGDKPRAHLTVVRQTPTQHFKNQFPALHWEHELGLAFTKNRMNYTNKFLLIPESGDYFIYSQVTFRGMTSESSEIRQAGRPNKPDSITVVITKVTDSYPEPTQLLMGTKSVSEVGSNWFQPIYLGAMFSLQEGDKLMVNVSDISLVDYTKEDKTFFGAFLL

B1: TL1A-0254 (antibody, V domains shown)
VH: QVQLVQSGAEVKKPGASVKVSCKASGYDFTYYGISWVRQAPGQGLEWMGWISTYGGNTHYAPSLQGRVTMTTDTSTSTAYMELRSLRSDDTAVYYCARESYYGSGAFRGGMDVWGQGTTVTVSS
VL: DIQMTQSPSSLSASVGDRVTITCRASQSVSSYLAWYQQKPGKAPKLLIYDASNRATGVPSRFSGSGSGTDFTLTISSLQPEDFATYYCQQRSNWPWTFGQGTKVEIKR
notes: IgG1 effector-minimized/kappa
B2: TL1A-0269 (antibody, V domains shown)
VH: B1 VH with F29Y, F107H
VL: B1 VL
notes: IgG1 effector-minimized/kappa
B3: TL1A-0266 (antibody, human IgG1, kappa, V domains shown)
VH: B1 VH with F29Y, G55N, G56T
VL: B1 VL
notes: human IgG1 effector-function-minimized / human kappa
B4: TL1A-0263 (antibody, human IgG1, kappa, V domains shown)
VH: B1 VH with F29Y, G55N, G56T, N57G, P62Q, S63K, F107H
VL: B1 VL
notes: as for B3
B5: TL1A-0255 (antibody, V domains shown)
VH: B1 VH with F107H
VL: B1 VL
notes: IgG1 effector-minimized/kappa
B6: TL1A-0258 (antibody, human IgG1, kappa, V domains shown)
VH: B1 VH with F29Y, G55N, G56D, P62Q, S63K
VL: B1 VL
notes: as for B3
B7: TL1A-0260 (antibody, human IgG1, kappa, V domains shown)
VH: B1 VH with F29Y, G55N, G56T, N57G
VL: B1 VL
notes: as for B3
B8: TL1A-0268 (antibody, V domains shown)
VH: B1 VH with F29Y
VL: B1 VL
notes: IgG1 effector-minimized/kappa
B9: TL1A-0257 (antibody, human IgG1, kappa, V domains shown)
VH: B1 VH with F29Y, G55N, G56D, F107H
VL: B1 VL
notes: as for B3
B10: TL1A-0256 (antibody, human IgG1, kappa, V domains shown)
VH: B1 VH with F29Y, G55N, G56D
VL: B1 VL
notes: as for B3
B11: TL1A-0264 (antibody, human IgG1, kappa, V domains shown)
VH: B1 VH with F29Y, G55N, G56T, N57V
VL: B1 VL
notes: as for B3
B12: TL1A-0261 (antibody, human IgG1, kappa, V domains shown)
VH: B1 VH with F29Y, G55N, G56T, N57G, F107H
VL: B1 VL
notes: as for B3
B13: TL1A-0267 (antibody, human IgG1, kappa, V domains shown)
VH: B1 VH with F29Y, G55N, G56T, F107H
VL: B1 VL
notes: as for B3
B14: TL1A-0262 (antibody, human IgG1, kappa, V domains shown)
VH: B1 VH with F29Y, G55N, G56T, N57G, P62Q, S63K
VL: B1 VL
notes: as for B3
B15: TL1A-0259 (antibody, V domains shown)
VH: B1 VH with F29Y, G55N, G56D, P62Q, S63K, F107H
VL: B1 VL
notes: IgG1 effector-minimized/kappa
B16: TL1A-0265 (antibody, human IgG1, kappa, V domains shown)
VH: B1 VH with F29Y, G55N, G56T, N57V, F107H
VL: B1 VL
notes: as for B3

Target: T1, recombinant human TL1A
Assay: competition ELISA on coated recombinant TL1A; competitor biotinylated TL1A-0002
Procedure: For this competition ELISA assay procedure, 96-well high binding plates (Corning, product number 3590) were coated with 1 μg/mL recombinant TL1A in 100 μL/well in Phospate Buffered Saline (PBS) overnight at 4° C. Plates were then blocked in PBS+0.02% casein solution and washed with PBS+0.05% Tween-20 following standard ELISA protocol. […] Plates were washed with PBS+0.05% Tween-20 following standard ELISA protocol, and Streptavidin-HRP (Southern Biotech, product number 7100-05) diluted to 1:10,000 in assay buffer was added to plates and incubated for 25-30 minutes at room temperature. Next, the plates were washed with PBS+0.05% Tween-20 following standard ELISA protocol, and then TMB substrate (BioFX Laboratories, catalog number TMBW-0100-01) was added to plates. Reactions were stopped after approximately 5 minutes by adding 0.18 M ortho-phosphoric acid to each well and absorbance was read at 450 nm.

Row | Bioactivity relative to TL1A-0002 | IC50 | Binder
1 | 9.2 fold | 46.3 nM | B1
2 | 7.5 fold | 37.7 nM | B2
3 | 1.3 fold | 6.6 nM | B3
4 | 1.2 fold | 6.2 nM | B4
5 | 7.6 fold | 38.4 nM | B5
6 | 2.2 fold | 10.9 nM | B6
7 | 1.3 fold | 6.8 nM | B7
8 | 9.6 fold | 48.2 nM | B8
9 | 1.9 fold | 9.5 nM | B9
10 | 2.3 fold | 11.6 nM | B10
11 | 3.1 fold | 15.8 nM | B11
12 | 1.1 fold | 5.6 nM | B12
13 | 1.3 fold | 6.8 nM | B13
14 | 1.4 fold | 7.3 nM | B14
15 | 3.7 fold | 18.4 nM | B15
16 | 1.7 fold | 8.7 nM | B16
